How the values were obtained:
[1] = Concentration reached and storage stability of purified conjugates in buffer; assay type: physicochemical; conditions: Storage buffer 20 mM Sodium Acetate pH5, 150 mM NaCl
[2] = Plasma pharmacokinetics in BALB/c mice (ELISA, total antibody and total ADC); assay type: in vivo, mouse; conditions: for Elimination half-life (hrs) Total Antibody: plasma ELISA
Description: Mice. Female BALB/c mice (BALB/cAnNCrl, Charles River) were eight weeks old with body weights ranging from 15.9 to 21.9 grams at the beginning of the study. The animals were fed ad libitum water (reverse osmosis, 1 ppm Cl) and NIH 31 Modified and Irradiated Lab Diet® consisting of 18.0% crude protein, 5.0% crude fat, and 5.0% crude fiber. The mice were housed on irradiated Enrich-o'cobs™ Laboratory Animal Bedding in static microisolators on a 12-hour light cycle at 20-22° C. (68-72° F.) and at 40-60% humidity. Charles River Discovery Services North Carolina (CR Discovery Services, who carried out this contracted R&D) specifically complies with the recommendations of the Guide for Care and Use of Laboratory Animals with respect to restraint, husbandry, surgical procedures, feed and fluid regulation, and veterinary care. The Animal Care and Use program at CR Discovery Services is accredited by the Association for Assessment and Accreditation of Laboratory Animal Care International, which assures compliance with accepted standards for the care and use of laboratory animals.
Therapeutic (test) Agents. All test agents were supplied as ready-to-dose dosing solutions. All dosing solutions were stored at 4° C. until dosed. All treatments were administered in a dosing volume scaled to the body weights of the individual animals to obtain the dosing concentration described in the treatment tables.
Treatment (mice). On Day 1 of the study, mice were divided into groups each consisting of eighteen mice (per test agent being evaluated), and dosing was initiated according to the treatment plan summarized in the treatment tables. All doses were administered intravenously (i.v.) by tail vein injection as described in the tables below.
Endpoint. The study endpoint occurred after the last sampling point, typically on Day 2 or 4, twenty-four or seventy-two hours post dose.
Sampling (mice). Blood (full blood volume) was collected from three animals per treatment group per timepoint. Samples were collected from all animals via terminal cardiac puncture under isoflurane anesthesia. Once collected, blood samples were collected into collection tubes containing lithium heparin or K2EDTA as anticoagulants and were processed for plasma at each timepoint. Each plasma sample was stored at −80° C. until used for analysis.
Quantification of test agents in plasma. An ELISA was carried out as described in Example 31 The detecting antibodies were (a) Anti-T7 tag to detect the scFv (total antibody), (b) Anti-Human Fab-specific to detect trastuzumab (total antibody), (c) Anti-MMAF (Concortis), Anti-MMAE (Concortis), anti-DM1
(Concortis) and anti-cemadotin (in-house mouse monoclonal antibody, Example 33 that also recognised P5C5 and AuristatinF), total ADC. The reference test agents were used to construct a calibration curve for which the plasma samples were compared to, in order to quantify the amount present. The concentration was plotted against time (average of three animals with standard error) and fitted to a 2-phase decay curve using GraphPad Prism to derive kinetic parameters.

[3] = target: HER2 (Homo sapiens, UniProt P04626); assay: Biacore SPR binding to immobilised HER2; conditions: immobilised HER2
Outline: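 HER2 amine-coupled on CM5 or CM3 chips, Biacore T200. Free antibody (typically 5-0.6 μg/ml) and conjugates (20-2.5 μg/ml) injected 160 s at 30 μl/min, 900 s dissociation (3600 s at highest concentration); regeneration with 8M MgCl2. Kinetics compared with unmodified scFv.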

[4] = Blood clearance in mice by direct ADC/scFv detection ELISA; assay type: in vivo, mouse; conditions: BALB/c mice
Description: An anti-Cemadotin MAb was raised (Example 33) and used to follow the ADC in mouse blood, to determine the pharmacokinetic properties. Normal BALB/c mice, 6-8 weeks old were maintained in filtered cages until used. A single batch of material (scFv-TCT, scFv (TCT)-Cemadotin, DAR=5 or 8) were prepared as above (Example 31) and 0.1 mg was injected into groups of 20 mice that were sacrificed at 4 time points (5 mice analysed per time point). Around 0.5 ml of whole blood was removed by cardiac puncture into EDTA-tubes and the serum collected by centrifugation. The serum was diluted appropriately into PBS and analysed by ELISA on HER2 coated micro-titre plates (Example 11D), detecting either by anti-T7 Tag (total antibody) or anti-cemadotin (total ADC). Non-injected reference samples were used to create a calibration curve for a direct read-out of ADC/ScFv blood concentration.

[5] = Blood clearance of 125-I radiolabelled scFv/conjugates in mice; assay type: in vivo, mouse; conditions: total protein level by 125-I labelling, 10 μg i.v., BALB/c mice
Description: An scFv, optimised for lysine conjugation was prepared as described in Example 27 or 28 and conjugated (as described in Example 31) to an NHS-derived Cemadotin drug (compound 2). The average DAR was 5 for scFv-TCT-Cem-1 and 4 for scFv-TCT-Cem-2 as determined by SDS-PAGE and IEF gels. This was radiolabelled with Iodine-125 using sodium-125-Iodide (MP Biologicals) and Iodogen™ tubes (Thermo) according to the manufacturer's instructions.
Ten micrograms of radiolabelled scFv or conjugate were injected intravenously into the tail vein of a group of 4 BALB/c female mice (Harlan UK) per time point. At each time point, blood was collected by cardiac puncture under terminal anaesthesia from 4 mice and the spleens were removed by dissection. The radioactivity from the blood and spleen tissues was measured using a gamma counter and compared to the injected dose, correcting for tissue weight. The percentage-injected dose per gram of tissue was plotted over time and pharmacokinetic parameters determined by fitting to a bi-exponential clearance model. […] This is described by the exponential decay, double, four-parameter equation y=ae^−bx+ce^−dx, where the distribution phase clearance rate (t1/2 alpha) can be determined by In 2/b, and the elimination clearance rate (t1/2 beta) can be determined by In 2/d.

[6] = 0.1 mg injected, serum, anti-T7 tag detection

B1: scFv (TCT): anti-HER2 scFv: Tev cleavage site, C6.5, T7 tag; SEQ ID NO: 2 (protein)
scFv: SGSGGSGQVQLVQSGAEVKKPGESLKISCKGSGYSFTSYWIAWVRQMPGKGLEYMGLIYPGDSDTKYSPSFQGQVTISVDKSVSTAYLQWSSLKPSDSAVYFCARHDVGYCSSSNCAAWPEYFQHWGQGTLVTVSSGGGGSGGGGSGGGGSQSVLTQPPSVSAAPGQKVTISCSGSSSNIGNNYVSWYQQLPGTAPKLLIYGHTNRPAGVPDRFSGSKSGTSASLAISGFRSEDEADYYCAAWDDSLSGWVFGGGTKLTVLMASMTGGQQMG
modifications: Amino Acid sequence of cleaved TCT
[1]
  stability after multiple freeze-thaw cycles: stable
[2]; mice, 1 × 5 mg/kg, mean AUC in anti-payload and anti-protein detection, Table 59
  Bioavailability (blood exposure, AUC, 24 hrs): 2.91 μghr/ml
[2]; mice, 1 × 5 mg/kg, Table 55
  Elimination half-life (hrs) Total Antibody: 2.78 h
[2]; mice, 1 × 5 mg/kg, Table 59
  Elimination half-life (hrs) Total Antibody: 2.78 h
[2]; single i.v. dose, female BALB/c mice (5 mg/kg MMAF-C5, P5C5; 2 mg/kg AF-C5, DM1)
  plasma clearance (in words): clears rapidly
[3]
  association rate: 2.8e+06 M⁻¹ s⁻¹
  dissociation rate: 0.00417 s⁻¹
[4]; [6]
  t1/2 (alpha), total antibody measured by anti-HER2 binding: 0.4 h
  t1/2 (beta), total antibody measured by anti-HER2 binding: 5.25 h
[4]; measured directly
  blood clearance (in words): rapid blood clearance
[5]
  t1/2 (alpha): 0.4 h
  t1/2 (beta): 4.3 h
